Blank lines part the entries; values can stand above or below the molecule they belong to.
Assays:
[1] = target: hFcγRIIa H131 (biotinylated avi-tagged, fused with monomeric Fc) (human) (UniProt P12318); assay: BLI (Octet HTX), biotinylated hFcγRIIa H131 on streptavidin biosensors, ADC in solution, 30 C, 1:1 fit
[2] = target: hFcγRIIIa F158 (biotinylated avi-tagged, fused with monomeric Fc) (human) (UniProt P08637); assay: BLI (Octet HTX), biotinylated hFcγRIIIa F158 on streptavidin biosensors, ADC in solution, 30 C, 1:1 fit
human B7-H4 on cells [3] = target: T1, human B7-H4 on cells (human, UniProt Q7Z7D3 25-282); assay: IHC on cell pellets, SKBR3 cells that express B7-H4 endogenously
T1 sequence: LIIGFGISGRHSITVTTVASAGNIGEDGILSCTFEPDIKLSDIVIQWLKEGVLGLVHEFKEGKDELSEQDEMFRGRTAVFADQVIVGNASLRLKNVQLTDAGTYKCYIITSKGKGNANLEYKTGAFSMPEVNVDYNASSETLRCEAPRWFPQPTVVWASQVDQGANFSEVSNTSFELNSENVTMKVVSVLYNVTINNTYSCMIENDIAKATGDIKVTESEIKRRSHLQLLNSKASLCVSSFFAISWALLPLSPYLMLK

human B7-H4 on cells [4] = target: T1, human B7-H4 on cells; assay: IHC on cell pellets, HCC1569 cells that express B7-H4 endogenously
human B7-H4 on cells [5] = target: T1, human B7-H4 on cells; assay: IHC on cell pellets, HCC1954 cells that express B7-H4 endogenously
human B7-H4 on cells [6] = target: T1, human B7-H4 on cells; assay: IHC on cell pellets, ZR-75-30 cells that express B7-H4 endogenously
human B7-H4 on cells [7] = target: T1, human B7-H4 on cells; assay: IHC on cell pellets, MDA-MB-468 cells that express B7-H4 endogenously
human B7-H4 on cells [8] = target: T1, human B7-H4 on cells; assay: cell-based or functional assay
[9] = target: hFcγRI (biotinylated avi-tagged, fused with monomeric Fc) (human) (UniProt P12314); assay: BLI (Octet HTX), biotinylated hFcγRI on streptavidin biosensors, antibody in solution, 30 C, 1:1 fit
[10] = target: hFcγRIIb (biotinylated avi-tagged, fused with monomeric Fc) (human) (UniProt P31994); assay: BLI (Octet HTX), biotinylated hFcγRIIb on streptavidin biosensors, antibody in solution, 30 C, 1:1 fit
[11] = target: hFcγRIIa R131 (biotinylated avi-tagged, fused with monomeric Fc) (human) (UniProt P12318); assay: BLI (Octet HTX), biotinylated hFcγRIIa R131 on streptavidin biosensors, antibody in solution, 30 C, 1:1 fit
[12] = target: hFcγRIIIa F158 (biotinylated avi-tagged, fused with monomeric Fc) (human) (UniProt P08637); assay: BLI (Octet HTX), biotinylated hFcγRIIIa F158 on streptavidin biosensors, antibody in solution, 30 C, 1:1 fit
[13] = target: hFcγRIIIa V158 (biotinylated avi-tagged, fused with monomeric Fc) (human) (UniProt P08637); assay: BLI (Octet HTX), biotinylated hFcγRIIIa V158 on streptavidin biosensors, antibody in solution, 30 C, 1:1 fit
[14] = target: hscFcRN (biotinylated avi-tagged, fused with monomeric Fc) (human) (UniProt P55899); assay: BLI (Octet HTX), biotinylated hscFcRN on streptavidin biosensors, antibody in solution, pH 6.0, 30 C, 1:1 fit

Chain of hFcγRI (biotinylated avi-tagged, fused with monomeric Fc) (human) (P12314 16-292): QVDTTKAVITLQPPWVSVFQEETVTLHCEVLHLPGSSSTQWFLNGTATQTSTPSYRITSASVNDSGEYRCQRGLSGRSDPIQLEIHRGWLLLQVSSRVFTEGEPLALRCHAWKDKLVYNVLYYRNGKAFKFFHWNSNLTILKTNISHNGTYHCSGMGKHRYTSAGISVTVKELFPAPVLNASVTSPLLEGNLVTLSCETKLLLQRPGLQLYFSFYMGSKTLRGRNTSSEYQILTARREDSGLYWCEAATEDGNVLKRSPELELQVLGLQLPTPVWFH
Chain of hFcγRIIIa V158 (biotinylated avi-tagged, fused with monomeric Fc) (human) (P08637 17-208 F176V): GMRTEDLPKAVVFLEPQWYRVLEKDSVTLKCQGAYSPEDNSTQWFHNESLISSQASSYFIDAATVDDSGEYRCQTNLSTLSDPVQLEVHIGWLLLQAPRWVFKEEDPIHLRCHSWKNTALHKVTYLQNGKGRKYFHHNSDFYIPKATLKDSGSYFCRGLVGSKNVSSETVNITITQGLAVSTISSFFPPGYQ
Chain of hFcγRIIb (biotinylated avi-tagged, fused with monomeric Fc) (human) (P31994 43-217): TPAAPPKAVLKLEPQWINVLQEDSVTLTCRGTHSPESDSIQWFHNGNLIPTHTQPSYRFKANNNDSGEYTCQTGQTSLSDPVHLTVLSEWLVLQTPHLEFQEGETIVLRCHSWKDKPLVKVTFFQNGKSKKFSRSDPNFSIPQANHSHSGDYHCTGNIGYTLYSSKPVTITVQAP
Chain of hFcγRIIa R131 (biotinylated avi-tagged, fused with monomeric Fc) (human) (P12318 34-217 H167R): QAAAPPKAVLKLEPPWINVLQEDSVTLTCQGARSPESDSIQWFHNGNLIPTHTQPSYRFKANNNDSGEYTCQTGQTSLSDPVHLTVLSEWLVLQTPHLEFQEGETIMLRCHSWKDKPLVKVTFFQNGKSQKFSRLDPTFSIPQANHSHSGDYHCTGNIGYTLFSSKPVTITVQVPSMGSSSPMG

Molecule: SGN-B7H4V (antibody)
Kd [1]: 4.2 µM
Kd [2]: 10.4 µM

Molecule: non-binding control ADC (antibody)
x50 (ng/mL), in vitro cytotoxicity, MDA-MB-468, 96 h, 3D spheroid, CellTiter-Glo (human B7-H4 on cells [8]): > 1000 ng/mL
x50 (ng/mL), in vitro cytotoxicity, MX1, 96 h, 3D spheroid, CellTiter-Glo (human B7-H4 on cells [8]): > 1000 ng/mL
x50 (ng/mL), in vitro cytotoxicity, SKBR3, 96 h, 3D spheroid, CellTiter-Glo (human B7-H4 on cells [8]): > 1000 ng/mL

B1: B7H41001 mAb quenched fluorophore conjugate (antibody, human IgG1, kappa, V domains shown)
VH: QLQLQESGPGLVKPSETLSLTCTVSGGSIKSGSYYWGWIRQPPGKGLEWIGNIYYSGSTYYNPSLRSRVTISVDTSKNQFSLKLSSVTAADTAVYYCAREGSYPNQFDPWGQGTLVTVSS
VL: EIVMTQSPATLSVSPGERATLSCRASQSVSSNLAWYQQKPGQAPRLLIYGASTRATGIPARFSGSGSGTEFTLTISSLQSEDFAVYYCQQYHSFPFTFGGGTKVEIKR
modifications: Cy5 dye and quencher pair attached by the same vc linker as in SGN-B7H4V; sites not stated
apparent half-life of the increase of fluorescent signal (internalization, quenched fluorophore assay on SKBR3 and MX-1 cells) (human B7-H4 on cells [8]): 3.2 to 4.9 h

Next, values leading:

intensity score (human B7-H4 on cells [3]): 3
intensity score (human B7-H4 on cells [4]): 3
intensity score (human B7-H4 on cells [5]): 2
intensity score (human B7-H4 on cells [6]): 1
intensity score (human B7-H4 on cells [7]): 3
Molecule: anti-B7-H4 antibody clone D1M8I

Kd [9]: 0.0018 µM
Kd [10]: 29 µM
Kd [11]: 3.1 µM
Kd [12]: 4.8 µM
Kd [13]: 0.78 µM
Kd [14]: 0.0103 µM
Molecule: positive control mAb (the anti-CD70 mAb h1F6) (antibody)

Reference: US20230117205A1, “B7-H4 ANTIBODY-DRUG CONJUGATES FOR THE TREATMENT OF CANCER” (SEAGEN INC., priority 2021, published 2023)
